In paper PMC8113879, “Molecular properties of human guanylate cyclase–activating protein 2 (GCAP2) and its retinal dystrophy–associated variant G157R” (The Journal of Biological Chemistry, 2021):

Key:
[1] = target: GCAP2 (Bos taurus) (UniProt P51177); test: sedimentation equilibrium; settings: cited from earlier work
[2] = target: the molecule itself; test: MALDI-TOF MS; 1.0 mg/ml protein in 20 mM Tris HCl pH 7.5, 150 mM KCl, 1 mM DTT, desalted by ZipTip C4, sinapinic acid matrix; dimer peaks beside the monomer peak
[3] = target: the molecule itself; test: SEC; analytical SEC, Superose 12 10/300GL, 20 mM Tris HCl pH 7.5, 150 mM KCl, 1 mM DTT, 1 mM Mg2+ + 500 uM Ca2+, 25 C; ~40 uM protein or 5-80 uM for the titration; apparent KD from a hyperbolic fit of apparent mass against concentration; monomer to dimer
[4] = target: the molecule itself; test: SEC; analytical SEC, Superose 12 10/300GL, 20 mM Tris HCl pH 7.5, 150 mM KCl, 1 mM DTT, 500 uM EGTA + 1 mM Mg2+ (no Ca2+), 25 C; ~40 uM protein or 5-80 uM for the titration; apparent KD from a hyperbolic fit of apparent mass against concentration; monomer to dimer

Chain of GCAP2 (P51177 2-204): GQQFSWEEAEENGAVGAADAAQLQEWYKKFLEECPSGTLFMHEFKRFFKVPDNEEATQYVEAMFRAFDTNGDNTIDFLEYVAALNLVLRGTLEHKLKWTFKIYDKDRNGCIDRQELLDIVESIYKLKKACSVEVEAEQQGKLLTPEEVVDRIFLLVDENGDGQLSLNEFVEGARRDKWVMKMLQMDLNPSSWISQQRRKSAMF
Chain of GCAP2 (Bos taurus) (P51177 2-204): as above

Molecule | Kd [1] | stoichiometry N [2] | Kd [3] | Kd [4]
GCAP2 (from UniProt P51177) | 52 µM |  |  | 
nonmyristoylated human guanylate cyclase-activating protein 2 (natural protein, UniProt Q9UMX6 1-200, looked up, cDNA cloned into pET-11a(+) with NdeI and NheI; No tag is mentioned; also called nmGCAP2; nonmyristoylated GCAP2) MGQEFSWEEAEAAGEIDVAELQEWYKKFVMECPSGTLFMHEFKRFFKVTDDEEASQYVEGMFRAFDKNGDNTIDFLEYVAALNLVLRGTLEHKLKWTFKIYDKDGNGCIDRLELLNIVEGIYQLKKACRRELQTEQGQLLTPEEVVDRIFLLVDENGDGQLSLNEFVEGARRDKWVMKMLQMDMNPSSWLAQQRRKSAMF |  | 2 |  | 
myristoylated human guanylate cyclase-activating protein 2 (natural protein, UniProt Q9UMX6 1-200, looked up, myristic acid covalently bound to the N-terminal Gly, cDNA cloned into pET-11a(+) with NdeI and NheI; Myristoylation was confirmed by MALDI-TOF (difference of 212.2 Da to nmGCAP2); Surmised: the first methionine is removed so that Gly2 is the myristoylated N-terminus; also called mGCAP2; myristoylated GCAP2) MGQEFSWEEAEAAGEIDVAELQEWYKKFVMECPSGTLFMHEFKRFFKVTDDEEASQYVEGMFRAFDKNGDNTIDFLEYVAALNLVLRGTLEHKLKWTFKIYDKDGNGCIDRLELLNIVEGIYQLKKACRRELQTEQGQLLTPEEVVDRIFLLVDENGDGQLSLNEFVEGARRDKWVMKMLQMDMNPSSWLAQQRRKSAMF |  | 2 | 55.4 µM | < 1000 nM
myristoylated human GCAP2 G157R variant (natural protein, UniProt Q9UMX6 1-200, looked up, myristic acid covalently bound to the N-terminal Gly, The variant occurs in patients (Japanese families with retinitis pigmentosa); also called G157R GCAP2; IRD-associated G157R variant) MGQEFSWEEAEAAGEIDVAELQEWYKKFVMECPSGTLFMHEFKRFFKVTDDEEASQYVEGMFRAFDKNGDNTIDFLEYVAALNLVLRGTLEHKLKWTFKIYDKDGNGCIDRLELLNIVEGIYQLKKACRRELQTEQGQLLTPEEVVDRIFLLVDENRDGQLSLNEFVEGARRDKWVMKMLQMDMNPSSWLAQQRRKSAMF |  | 2 |  | 
